Source: patent US8778880

Columns and labels:
[1] = target: human growth hormone receptor on IM-9 cells (human) (UniProt P10912); assay: cell-based or functional assay
[2] = target: T1, rat GHR (L43R) on BAF3 cells (clone 2E2-2B12-F4) (rat) (UniProt P16310); assay: cell-based or functional assay
T1 sequence (looked up): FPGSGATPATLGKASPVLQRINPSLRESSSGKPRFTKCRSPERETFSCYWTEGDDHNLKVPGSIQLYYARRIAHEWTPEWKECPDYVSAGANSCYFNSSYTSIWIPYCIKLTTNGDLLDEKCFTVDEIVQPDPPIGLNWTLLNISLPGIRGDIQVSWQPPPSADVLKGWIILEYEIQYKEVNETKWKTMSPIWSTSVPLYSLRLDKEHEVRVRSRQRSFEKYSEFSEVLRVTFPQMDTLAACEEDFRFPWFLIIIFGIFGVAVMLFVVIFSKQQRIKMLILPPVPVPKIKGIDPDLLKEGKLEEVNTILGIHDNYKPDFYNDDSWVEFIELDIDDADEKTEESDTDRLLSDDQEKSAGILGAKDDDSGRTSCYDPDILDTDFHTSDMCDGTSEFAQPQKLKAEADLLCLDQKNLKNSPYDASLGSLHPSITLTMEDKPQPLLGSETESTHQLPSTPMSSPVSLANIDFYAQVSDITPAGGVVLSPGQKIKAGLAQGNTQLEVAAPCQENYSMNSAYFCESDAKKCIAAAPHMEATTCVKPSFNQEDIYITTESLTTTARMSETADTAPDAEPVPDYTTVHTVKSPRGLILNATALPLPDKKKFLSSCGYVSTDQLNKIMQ

UniProt P10912, sequence (P10912 19-638): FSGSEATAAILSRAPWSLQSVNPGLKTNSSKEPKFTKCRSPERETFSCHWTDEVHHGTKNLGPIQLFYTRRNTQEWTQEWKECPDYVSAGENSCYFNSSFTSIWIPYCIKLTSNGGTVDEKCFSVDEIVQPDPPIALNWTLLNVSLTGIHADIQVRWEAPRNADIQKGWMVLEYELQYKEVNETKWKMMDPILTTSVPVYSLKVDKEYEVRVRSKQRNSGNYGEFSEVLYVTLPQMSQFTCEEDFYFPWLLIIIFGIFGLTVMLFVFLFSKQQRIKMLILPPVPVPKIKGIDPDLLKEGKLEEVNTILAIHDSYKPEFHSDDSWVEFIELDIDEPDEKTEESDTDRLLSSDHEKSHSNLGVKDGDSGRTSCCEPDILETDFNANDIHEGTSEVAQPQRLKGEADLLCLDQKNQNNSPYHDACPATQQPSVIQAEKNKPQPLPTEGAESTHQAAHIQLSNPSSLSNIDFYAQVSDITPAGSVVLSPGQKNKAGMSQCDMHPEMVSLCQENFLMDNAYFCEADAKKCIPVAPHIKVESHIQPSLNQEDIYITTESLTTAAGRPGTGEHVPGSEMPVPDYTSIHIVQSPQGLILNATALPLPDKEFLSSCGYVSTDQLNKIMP

## hGH G131pAF-30KPEG (from UniProt P01241 27-217) (ligand)
[1]
  pSTAT5 EC50 (IM-9) (nM (head); WHO hGH expressed as unity): 23.8
[2]
  Proliferation EC50 (BrdU, rat GHR (L43R) BAF3 cells) (nM (head); WHO hGH expressed as unity): 4.6

## hGH K145pAF-30KPEG (from UniProt P01241 27-217) (ligand)
[1]
  pSTAT5 EC50 (IM-9) (nM (head); WHO hGH expressed as unity): 20.6
[2]
  Proliferation EC50 (BrdU, rat GHR (L43R) BAF3 cells) (nM (head); WHO hGH expressed as unity): 5.3

## hGH R134pAF-20KPEG (from UniProt P01241 27-217) (ligand)
[1]
  pSTAT5 EC50 (IM-9) (nM (head); WHO hGH expressed as unity): 5.3

## hGH Y35pAF-40KPEG (from UniProt P01241 27-217) (ligand)
[1]
  pSTAT5 EC50 (IM-9) (nM (head); WHO hGH expressed as unity): 53.3
[2]
  Proliferation EC50 (BrdU, rat GHR (L43R) BAF3 cells) (nM (head); WHO hGH expressed as unity): 24

## hGH Y143pAF-30KPEG (from UniProt P01241 27-217) (ligand)
[1]
  pSTAT5 EC50 (IM-9) (nM (head); WHO hGH expressed as unity): 12.3
[2]
  Proliferation EC50 (BrdU, rat GHR (L43R) BAF3 cells) (nM (head); WHO hGH expressed as unity): 6.6
